This test has as its target Importin-α1 (UniProt P52292). The test can be described thus: proximity ligation assay. The settings on record: PLC3 cells electroporated with HEV-p6 RNA, 18 h.p.e; 12 fields of cells, mean ± S.D.; parent: est. 5.3; read off a plot.

With “HEV ORF2 capsid protein, wild type (genotype 3 Kernow C-1 p6 strain) P25R; S26R; G27R”, the response came out at 4.8 spot/cell.
Consider “HEV ORF2 capsid protein, wild type (genotype 3 Kernow C-1 p6 strain) R28A; R29A; R30A; R32A; R33A”, for which the response was 1.1 spot/cell.
